Measurements reported in US20210332115A1 (Sanofi, published 2021).
Each block holds one binder with its values, some of them ahead of it.

Columns and labels:
[1] = target: T1, Homo sapiens factor Bb protein (human, UniProt P00751 260-764); assay: SPR single cycle kinetics; ratio against VH0/Vκ0
T1 construct: Bought from CompTech (A155); also called complement factor Bb; human factor Bb
Protocol: (§1) In order to assess the binding of all humanized variants, single cycle kinetic analysis was performed on supernatants from transfected cell cultures. […] All single cycle kinetic experiments were run at 25° C. with HBS-P+running buffer (pH 7. 4) (GE Healthcare, Little Chalfont, UK).
(§2) Antibodies were diluted in running buffer to a final concentration of 1 μg/ml, based on concentrations assessed by ELISA titer. At the start of each cycle, antibodies were loaded onto Fc2, Fc3 and Fc4 of the Protein A chip (GE Healthcare, Little Chalfont, UK). IgGs were captured at a flow rate of 10 μl/min to give an immobilization level (RL) of ˜63 RU, the theoretical value to obtain an Rmax of ˜50 RU. The surface was then allowed to stabilize. Single cycle kinetic data was obtained with factor Bb (CompTech, Tyler, USA) as the analyte at a flow rate of 30 μl/min to minimize any potential mass transport limitations. Multiple repeats with the reference chimeric antibody were performed to check the stability of the surface and analyte over the kinetic cycles. The signal from the reference channel Fc1 (no antibody) was subtracted from that of Fc2, Fc3 and Fc4 to correct for differences in non-specific binding to a reference surface. A four point, two-fold dilution range from 0. 78 nM to 6. 25 nM factor Bb without regeneration between each concentration was used. The association phase for the four injections of increasing concentrations of factor Bb was monitored for 200 seconds each time and a single dissociation phase was measured for 200 seconds following the last injection of factor Bb. Regeneration of the Protein A surface was conducted using two injections of 10 mM glycine-HCL pH 1. 5.
(§3) The sensorgrams and fitted data for the single cycle kinetics are shown in FIGS. 1A-1D and the kinetic parameters measured for the interaction of factor Bb with each antibody are shown in Table 7. The relative KD was calculated by dividing the KD of the VH0/Vκ0 reference antibody by that of the humanized variant assayed in the same experiment.

[2] = target: T1, Homo sapiens factor Bb protein; assay: SPR multi-cycle kinetics; ratio against VH0/Vκ0 on the same chip
Protocol: Antibodies were diluted in running buffer to a final concentration of 0.5 μg/ml. At the start of each cycle, antibodies were loaded onto Fc2, Fc3 and Fc4 of the Protein A chip (GE Healthcare, Little Chalfont, UK). IgGs were captured at a flow rate of 10 μl/min to give an immobilisation level (RL) of ˜63 RU, the theoretical value to obtain an Rmax of ˜50 RU. The surface was then allowed to stabilize. Kinetic data was obtained with factor Bb as analyte and using a flow rate of 30 μl/min to minimize any potential mass transfer effects. Multiple repeats of a blank and a repeat of a single concentration of the analyte were programmed into the kinetic run in order to check the stability of both the surface and analyte over the kinetic cycles. For kinetic analysis, a two-fold dilution range was selected from 12. 5 nM to 0. 391 nM factor Bb. The association phase of factor Bb was monitored for 360 seconds and the dissociation phase was monitored for 600 seconds. Regeneration of the Protein A surface was conducted using two injections of 10 mM glycine-HCL pH 1. 5. The signal from the reference channel Fc1 was subtracted from that of Fc2, Fc3 and Fc4 to correct for differences in non-specific binding to a reference surface, and a global Rmax parameter was used in the 1-to-1 binding model.
The sensorgrams and fitted data for the binding of chimeric antibodies and humanized variants to factor Bb are shown in FIGS. 4A-4C. The relative KD was calculated by dividing the KD of the humanized variants by that of the chimeric antibody on the same chip. The kinetic parameters measured for the interaction of factor Bb with chimeric antibodies and humanized variants are shown in Table 10.

[3] = target: T1, Homo sapiens factor Bb protein; assay: SPR single cycle kinetics, IgG on Protein A chip, factor Bb analyte
Protocol: as §1, §2, §3

C2 (Comptech A112) = target: T2, C2 (Comptech A112) (UniProt P06681 21-752); assay: ELISA, target coated at 2.5 µg/mL, biotinylated antibody titrated, streptavidin-HRP, OD450 background subtracted
T2 sequence (looked up): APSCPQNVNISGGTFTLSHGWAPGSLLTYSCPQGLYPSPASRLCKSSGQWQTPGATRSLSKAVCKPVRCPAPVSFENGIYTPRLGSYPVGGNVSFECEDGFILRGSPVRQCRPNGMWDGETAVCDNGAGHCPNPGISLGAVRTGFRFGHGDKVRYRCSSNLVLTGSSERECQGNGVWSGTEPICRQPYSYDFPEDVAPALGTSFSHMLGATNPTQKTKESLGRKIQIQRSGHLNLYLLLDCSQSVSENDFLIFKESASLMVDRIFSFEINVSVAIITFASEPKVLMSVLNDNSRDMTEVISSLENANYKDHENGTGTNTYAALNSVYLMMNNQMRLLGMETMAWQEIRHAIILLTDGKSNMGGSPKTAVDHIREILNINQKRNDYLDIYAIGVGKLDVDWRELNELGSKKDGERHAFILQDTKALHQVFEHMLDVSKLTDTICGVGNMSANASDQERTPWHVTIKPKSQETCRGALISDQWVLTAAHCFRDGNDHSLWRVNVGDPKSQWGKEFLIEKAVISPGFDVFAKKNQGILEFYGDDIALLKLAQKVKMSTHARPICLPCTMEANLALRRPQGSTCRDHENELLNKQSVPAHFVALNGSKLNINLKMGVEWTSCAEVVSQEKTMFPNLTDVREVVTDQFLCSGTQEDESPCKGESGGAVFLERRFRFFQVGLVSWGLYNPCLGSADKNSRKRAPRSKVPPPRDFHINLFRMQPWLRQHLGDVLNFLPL
Protocol: Briefly, complement and plasma proteins were coated onto ELISA plates at 2. 5 μg/mL in PBS overnight at 4° C. Plates were then blocked with Casein for 1 hour at room temperature and washed four times with 1× DPBS/0.05% Tween-20 followed by a single wash with 1× DPBS. Serial dilutions starting at 50 μg/ml of biotinylated chimeric parent or VH6/VK7-IgG4v2 were added to the plate in PBS/0.1%casein/0.1%Tween-20 and incubated for 2 hours at room temperature. Plates were washed as described and a 1:10,000 dilution of streptavidin-HRP (Southern Biotech 7100-05) in PBS/0.1% casein/0.1% Tween-20 was added to the plate and incubated for 30 minutes at room temperature. Plates were again washed and Ultra TMP ELISA (Thermo 34028) was added to the plate for 1 minute, followed by stop solution). OD 450 nm was read in a plate reader and background at 620 nm was subtracted. Both the chimeric parent (FIG. 8A) and the humanized variant (FIG. 8B) show complete specificity for factor Bb.

T1 sequence (P00751 260-764 limits assumed): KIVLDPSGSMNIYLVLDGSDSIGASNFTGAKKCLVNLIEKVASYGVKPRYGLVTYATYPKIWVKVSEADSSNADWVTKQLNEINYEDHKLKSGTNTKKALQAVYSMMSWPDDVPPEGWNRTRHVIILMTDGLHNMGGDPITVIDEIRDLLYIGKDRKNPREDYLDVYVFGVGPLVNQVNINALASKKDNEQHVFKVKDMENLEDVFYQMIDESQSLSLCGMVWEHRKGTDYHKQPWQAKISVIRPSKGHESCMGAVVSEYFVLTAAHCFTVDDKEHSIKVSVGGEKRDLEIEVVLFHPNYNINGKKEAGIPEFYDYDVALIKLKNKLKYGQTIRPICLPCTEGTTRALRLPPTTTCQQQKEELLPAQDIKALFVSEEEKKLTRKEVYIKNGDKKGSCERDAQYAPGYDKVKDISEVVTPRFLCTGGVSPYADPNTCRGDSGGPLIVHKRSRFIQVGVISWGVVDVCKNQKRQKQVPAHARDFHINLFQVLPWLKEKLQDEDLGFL

Relative KD [1]: 1
Relative KD [2]: 1
Kd [3]: 1.76 nM
koff [3]: 0.00103 s⁻¹
kon [3]: 585000 M⁻¹ s⁻¹
B1: VH0/Vκ0 (Chimeric) (antibody, V domains shown)
VH: EVQLVESGGALVKPGGSLKLSCAASGFTFSNYAMSWVRQTPEKRLEWVATISNRGSYTYYPDSVKGRFTISRDNAKNTLYLQMSSLRSEDTALYYCARERPMDYWGQGTSVTVSS
VL: DIVMTQSHKFMSTSVGDRVSITCKASQDVGTAVAWYQQKPGQSPKLLIYWASTRHTGVPDRFTGSGSGTDFTLTITNVQSEDLAVYFCHQHSSNPLTFGAGTKLELK
notes: also called chimeric antibody

binding result (C2 (Comptech A112)): no binding
B2: VH6/Vκ7-IgG4v2 (antibody)
heavy: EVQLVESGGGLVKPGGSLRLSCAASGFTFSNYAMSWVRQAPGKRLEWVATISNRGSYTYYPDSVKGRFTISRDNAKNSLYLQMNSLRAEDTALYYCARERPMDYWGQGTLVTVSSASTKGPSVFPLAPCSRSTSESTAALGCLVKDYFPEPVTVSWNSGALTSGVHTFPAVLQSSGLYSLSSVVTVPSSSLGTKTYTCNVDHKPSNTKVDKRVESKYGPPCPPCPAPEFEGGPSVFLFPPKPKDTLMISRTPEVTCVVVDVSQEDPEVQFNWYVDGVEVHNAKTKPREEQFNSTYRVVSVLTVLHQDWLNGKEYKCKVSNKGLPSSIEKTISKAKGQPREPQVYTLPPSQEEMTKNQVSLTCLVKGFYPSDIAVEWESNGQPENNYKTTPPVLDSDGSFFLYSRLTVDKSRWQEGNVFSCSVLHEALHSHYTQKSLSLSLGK
light: DIQMTQSPSTLSASVGDRVTITCKASQDVGTAVAWYQQKPGKAPKLLIYWASTRHTGVPDRFSGSGSGTDFTLTISSLQAEDFAVYFCHQHSSNPLTFGQGTKLEIKRTVAAPSVFIFPPSDEQLKSGTASVVCLLNNFYPREAKVQWKVDNALQSGNSQESVTEQDSKDSTYSLSSTLTLSKADYEKHKVYACEVTHQGLSSPVTKSFNRGEC
notes: also called VH6/VK7-IgG4v2; VH6/VK7-IgG4v2_HEK
